This assay has as its target T1, Itc1p (yeast, UniProt P53125 1-1264).
T1 construct: Co-expressed with Isw2p in insect cells from MultiBac baculovirus; also called 145 kDa Itc1p; subunit of the yeast Isw2 chromatin remodelling complex
T1 sequence (looked up): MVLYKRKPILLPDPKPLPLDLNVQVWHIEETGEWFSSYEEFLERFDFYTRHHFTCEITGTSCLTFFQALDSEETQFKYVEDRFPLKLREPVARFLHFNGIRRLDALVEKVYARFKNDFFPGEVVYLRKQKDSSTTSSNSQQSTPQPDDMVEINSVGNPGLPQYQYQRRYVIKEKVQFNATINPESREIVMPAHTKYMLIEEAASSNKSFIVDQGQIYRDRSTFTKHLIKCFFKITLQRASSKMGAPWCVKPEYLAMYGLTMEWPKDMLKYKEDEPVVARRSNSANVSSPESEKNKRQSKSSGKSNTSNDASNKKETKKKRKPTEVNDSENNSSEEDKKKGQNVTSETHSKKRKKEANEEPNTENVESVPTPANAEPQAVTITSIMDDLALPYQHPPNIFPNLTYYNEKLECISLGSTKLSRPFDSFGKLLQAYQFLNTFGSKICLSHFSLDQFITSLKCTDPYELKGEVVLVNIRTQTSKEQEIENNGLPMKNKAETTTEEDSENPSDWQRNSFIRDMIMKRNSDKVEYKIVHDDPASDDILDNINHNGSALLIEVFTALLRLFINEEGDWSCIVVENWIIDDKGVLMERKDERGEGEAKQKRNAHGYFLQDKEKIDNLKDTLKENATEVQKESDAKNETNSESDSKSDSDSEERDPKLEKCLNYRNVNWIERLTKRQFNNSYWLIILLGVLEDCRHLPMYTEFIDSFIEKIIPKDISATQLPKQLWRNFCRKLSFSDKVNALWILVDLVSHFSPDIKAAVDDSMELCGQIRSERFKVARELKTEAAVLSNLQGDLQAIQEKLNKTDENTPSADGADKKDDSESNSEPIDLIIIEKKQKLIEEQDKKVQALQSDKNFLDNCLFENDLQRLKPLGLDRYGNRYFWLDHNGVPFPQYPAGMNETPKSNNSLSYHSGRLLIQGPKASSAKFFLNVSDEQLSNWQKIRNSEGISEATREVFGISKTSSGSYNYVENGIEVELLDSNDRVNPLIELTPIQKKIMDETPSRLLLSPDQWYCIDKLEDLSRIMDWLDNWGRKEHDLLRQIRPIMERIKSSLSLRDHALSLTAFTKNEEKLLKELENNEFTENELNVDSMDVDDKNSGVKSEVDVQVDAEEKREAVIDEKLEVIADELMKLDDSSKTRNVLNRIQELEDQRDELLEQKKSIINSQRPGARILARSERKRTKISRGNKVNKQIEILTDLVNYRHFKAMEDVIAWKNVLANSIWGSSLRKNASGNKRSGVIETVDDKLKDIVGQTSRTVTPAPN
The assay can be described thus: co-expression in insect cells from MultiBac baculovirus; complex purified (FIG. 8). From the text:
In a test experiment the yeast Isw2 chromatin remodelling complex consisting of the 130 kDa Isw2p and the 145 kDa Itc1p proteins was expressed. One version of MultiBac was created with both proteins integrated at the attTn7 site, and a second version with Isw2p integrated at the attTn7 site and Itc1p inserted at the LoxP site. […] For further detail see FIG. 8.

B1: Isw2p (other, yeast, UniProt Q08773 1-1120, looked up)
chain: MTTQQEEQRSDTKNSKSESPSEVLVDTLDSKSNGSSDDDNIGQSEELSDKEIYTVEDRPPEYWAQRKKKFVLDVDPKYAKQKDKSDTYKRFKYLLGVTDLFRHFIGIKAKHDKNIQKLLKQLDSDANKLSKSHSTVSSSSRHHRKTEKEEDAELMADEEEEIVDTYQEDIFVSESPSFVKSGKLRDYQVQGLNWLISLHENKLSGILADEMGLGKTLQTISFLGYLRYVKQIEGPFLIIVPKSTLDNWRREFLKWTPNVNVLVLHGDKDTRADIVRNIILEARFDVLITSYEMVIREKNALKRLAWQYIVIDEAHRIKNEQSALSQIIRLFYSKNRLLITGTPLQNNLHELWALLNFLLPDIFGDSELFDEWFEQNNSEQDQEIVIQQLHSVLNPFLLRRVKADVEKSLLPKIETNVYVGMTDMQIQWYKSLLEKDIDAVNGAVGKREGKTRLLNIVMQLRKCCNHPYLFEGAEPGPPYTTDEHLIFNSGKMIILDKLLKRLKEKGSRVLIFSQMSRLLDILEDYCYFRDFEYCRIDGSTSHEERIEAIDEYNKPNSEKFVFLLTTRAGGLGINLVTADTVILFDSDWNPQADLQAMDRAHRIGQKKQVHVYRFVTENAIEEKVIERAAQKLRLDQLVIQQGTGKKTASLGNSKDDLLDMIQFGAKNMFEKKASKVTVDADIDDILKKGEQKTQELNAKYQSLGLDDLQKFNGIENQSAYEWNGKSFQKKSNDKVVEWINPSRRERRREQTTYSVDDYYKEIIGGGSKSASKQTPQPKAPRAPKVIHGQDFQFFPKELDALQEKEQLYFKKKVNYKVTSYDITGDIRNEGSDAEEEEGEYKNAANTEGHKGHEELKRRIEEEQEKINSAPDFTQEDELRKQELISKAFTNWNKRDFMAFINACAKYGRDDMENIKKSIDSKTPEEVEVYAKIFWERLKEINGWEKYLHNVELGEKKNEKLKFQETLLRQKIEQCKHPLHELIIQYPPNNARRTYNTLEDKFLLLAVNKYGLRADKLYEKLKQEIMMSDLFTFDWFIKTRTVHELSKRVHTLLTLIVREYEQPDANKKKRSRTSATREDTPLSQNESTRASTVPNLPTTMVTNQKDTNDHVDKRTKIDQEA
notes: Co-expressed with Itc1p in insect cells from MultiBac baculovirus; also called 130 kDa Isw2p; subunit of the yeast Isw2 chromatin remodelling complex
As for B1, the binding result is “binds”.

The values above are taken from US20160177336A1 (EIDGENOESSISCHE TECHNISCHE HOCHSCHULE ZURICH, published 2016).
